Assay results reported in publication PMC4786692.
pEC50, pIC50, pKd: −log10 of the molar value.

Experiments:
Human VEGF-A121 (human) = experiment: MSD (meso scale discovery) plate binding assay; VEGF ligand coated at 2 μg/ml on MSD high bind plate; anti-VEGF molecule added in 0.1% BSA/PBS, 2 h room temperature; detection with sulfo-TAG anti-human IgG (Fc-specific); n = 3
[1] = molecular target: Human VEGF_(1–165) (human); experiment: as above
Murine VEGF-A164 (mouse) = experiment: as above
[2] = molecular target: VEGF-165 (R&D Systems) (human); experiment: MSD receptor binding inhibition assay; VEGFR1 coated at […]; anti-VEGF molecule added 10 min before VEGF-165 (10 ng/ml final); 2 h room temperature; bound VEGF detected with biotinylated anti-VEGF and streptavidin sulfo-TAG
[3] = molecular target: VEGF-165 (R&D Systems) (human); experiment: MSD receptor binding inhibition assay; VEGFR2 coated at […]; anti-VEGF molecule added 10 min before VEGF-165 (10 ng/ml final); 2 h room temperature; bound VEGF detected with biotinylated anti-VEGF and streptavidin sulfo-TAG
VEGF dual dAb (human) [4] = experiment: SPR; Biacore T200, C1 chip; VEGF dual dAb captured on immobilised protein A (20 RU); VEGF injected at 0.03-32 nM (32 nM curves removed), 60 μl/min; 37 °C, HBS-EP; 1:1 model; triplicate
[5] = molecular target: Human VEGF_(1–165) (human); experiment: SEC-MALS; input proteins and complexes at input molar ratios 1:2, 2:1, 4:1 (dual dAb-VEGF) and 1:1, 1:2, 2:1, 4:1 (bevacizumab-VEGF); Superdex 200 column; PBS pH 7.4
[6] = molecular target: VEGF dual dAb in complex with human VEGF-165 (human); experiment: SPR; ProteOn GLM chip; VEGF dual dAb alone or in complex with VEGF-165 immobilised by amine coupling; FcRn injected at 3.9-1000 nM; 25 °C, HBS-EP pH 6; equilibrium model
VEGF dual dAb (human) [7] = experiment: as above

Sequence of VEGF dual dAb (human) (heavy, as listed by the source, chain 1 of 2): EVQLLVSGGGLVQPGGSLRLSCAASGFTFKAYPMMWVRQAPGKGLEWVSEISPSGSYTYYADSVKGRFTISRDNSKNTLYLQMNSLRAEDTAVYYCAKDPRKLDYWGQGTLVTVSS
Sequence of VEGF dual dAb (human) (light, as listed by the source, chain 2 of 2): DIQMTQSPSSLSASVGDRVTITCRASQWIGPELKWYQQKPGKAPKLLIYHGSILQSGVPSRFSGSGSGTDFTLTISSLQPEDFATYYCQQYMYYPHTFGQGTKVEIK
Sequence of Aflibercept (Fc fusion) (chain): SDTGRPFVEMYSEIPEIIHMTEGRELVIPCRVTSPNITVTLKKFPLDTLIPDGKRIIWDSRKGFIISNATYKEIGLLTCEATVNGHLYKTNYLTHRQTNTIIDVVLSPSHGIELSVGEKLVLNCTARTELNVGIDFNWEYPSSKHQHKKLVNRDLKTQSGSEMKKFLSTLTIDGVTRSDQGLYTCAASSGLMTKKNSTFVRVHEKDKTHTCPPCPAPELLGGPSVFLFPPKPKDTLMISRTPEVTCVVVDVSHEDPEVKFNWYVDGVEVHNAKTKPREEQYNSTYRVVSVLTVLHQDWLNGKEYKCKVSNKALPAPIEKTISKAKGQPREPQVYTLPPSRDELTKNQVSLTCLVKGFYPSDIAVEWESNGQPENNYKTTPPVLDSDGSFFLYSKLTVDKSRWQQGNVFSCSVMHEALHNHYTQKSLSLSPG
Sequence of Human FcRn (P55899 24-365): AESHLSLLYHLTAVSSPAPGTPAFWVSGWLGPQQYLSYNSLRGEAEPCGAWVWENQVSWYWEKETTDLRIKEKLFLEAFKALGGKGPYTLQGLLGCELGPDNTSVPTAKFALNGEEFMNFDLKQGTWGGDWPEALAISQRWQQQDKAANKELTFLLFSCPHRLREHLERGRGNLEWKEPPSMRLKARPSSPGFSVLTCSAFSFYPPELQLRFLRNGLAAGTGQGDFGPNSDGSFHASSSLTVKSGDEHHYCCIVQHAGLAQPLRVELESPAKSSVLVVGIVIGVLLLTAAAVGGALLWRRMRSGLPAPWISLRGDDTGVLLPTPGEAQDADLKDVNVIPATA
Sequence of Human FcRn (P61769 21-119): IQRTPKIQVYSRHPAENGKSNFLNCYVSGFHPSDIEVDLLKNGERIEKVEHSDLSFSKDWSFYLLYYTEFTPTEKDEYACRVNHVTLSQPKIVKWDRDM
Sequence of VEGF dual dAb in complex with human VEGF-165 (human) (heavy, as listed by the source, chain 1 of 2): as the sequence (heavy, as listed by the source, chain 1 of 2) above
Sequence of VEGF dual dAb in complex with human VEGF-165 (human) (light, as listed by the source, chain 2 of 2): as the sequence (light, as listed by the source, chain 2 of 2) above

Substance	pKd (VEGF dual dAb (human) [4])	koff (VEGF dual dAb (human) [4])	kon (VEGF dual dAb (human) [4])	other results
Aflibercept (Fc fusion)				pEC50 (Human VEGF-A121 (human)): 9.50; pEC50 [1]: 10.07; pEC50 (Murine VEGF-A164 (mouse)): 10.02; pIC50 [2]: 10.12; pIC50 [3]: 10.49
Murine VEGF-A164 (ligand)	11.19	5.19e-05 s⁻¹	8e+06 M⁻¹ s⁻¹	
Human VEGF_(1–165) (ligand)	11.14	4.76e-05 s⁻¹	6.63e+06 M⁻¹ s⁻¹	stoichiometry N [5]: 2
Human FcRn (from UniProt P55899 24-365; P61769 21-119) (receptor)				pKd [6]: 6.32; pKd (VEGF dual dAb (human) [7]): 6.49
Human VEGF-A165, E. coli expressed (ligand)	11.00	8.08e-05 s⁻¹	8.13e+06 M⁻¹ s⁻¹	
